From patent US20150072933A1, “NOVEL SEQUENCES FOR THE CONTROL OF REPRODUCTION IN FISH” (Yissum Research Development Company of the Hebrew …, priority 2011, published 2015)
*1 amine or outer side, *2 acyl side, *3 side chain or, on linkers, in order; H or OH if unused. Where no end group is shown, it is not given here. [ ]: non-standard residue; d: D form. NMeF = CN[C@@H](Cc1ccccc1)C(=O)O; Suc = O=C(CCC(=O)[*:2])[*:1]; NMeV = CN[C@H](C(=O)O)C(C)C

T1: zebrafish Tac3ra (tac3 receptor a, NKB receptor) (zebrafish)
T1 chain: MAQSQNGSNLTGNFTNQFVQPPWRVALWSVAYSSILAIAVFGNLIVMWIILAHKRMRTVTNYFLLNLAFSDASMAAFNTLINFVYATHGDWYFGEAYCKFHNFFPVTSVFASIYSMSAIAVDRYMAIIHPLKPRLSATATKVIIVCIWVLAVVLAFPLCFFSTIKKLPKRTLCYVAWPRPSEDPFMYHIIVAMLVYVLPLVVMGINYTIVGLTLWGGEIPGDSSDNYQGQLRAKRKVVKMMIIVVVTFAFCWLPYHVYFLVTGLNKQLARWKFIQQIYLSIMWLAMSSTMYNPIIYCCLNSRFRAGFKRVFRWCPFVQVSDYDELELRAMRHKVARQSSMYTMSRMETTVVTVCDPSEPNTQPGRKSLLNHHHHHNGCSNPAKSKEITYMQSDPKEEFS

T2: human NK3R (human NKB receptor) (human, UniProt P29371 1-465)
T2 sequence (looked up): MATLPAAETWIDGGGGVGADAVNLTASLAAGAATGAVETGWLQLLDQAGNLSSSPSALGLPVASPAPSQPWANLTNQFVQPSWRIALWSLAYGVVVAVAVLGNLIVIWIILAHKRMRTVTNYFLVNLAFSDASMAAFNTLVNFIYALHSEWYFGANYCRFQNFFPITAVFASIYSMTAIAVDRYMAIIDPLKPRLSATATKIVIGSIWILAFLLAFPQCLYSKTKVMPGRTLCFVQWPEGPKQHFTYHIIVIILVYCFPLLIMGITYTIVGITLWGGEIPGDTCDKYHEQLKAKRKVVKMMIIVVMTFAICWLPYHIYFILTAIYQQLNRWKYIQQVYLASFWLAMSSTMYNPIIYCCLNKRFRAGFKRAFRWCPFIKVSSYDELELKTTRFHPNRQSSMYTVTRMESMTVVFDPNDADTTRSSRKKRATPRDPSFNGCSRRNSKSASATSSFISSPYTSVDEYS

T3: zebrafish Tac3rb (tac3 receptor b, NKB receptor) (zebrafish)
T3 chain: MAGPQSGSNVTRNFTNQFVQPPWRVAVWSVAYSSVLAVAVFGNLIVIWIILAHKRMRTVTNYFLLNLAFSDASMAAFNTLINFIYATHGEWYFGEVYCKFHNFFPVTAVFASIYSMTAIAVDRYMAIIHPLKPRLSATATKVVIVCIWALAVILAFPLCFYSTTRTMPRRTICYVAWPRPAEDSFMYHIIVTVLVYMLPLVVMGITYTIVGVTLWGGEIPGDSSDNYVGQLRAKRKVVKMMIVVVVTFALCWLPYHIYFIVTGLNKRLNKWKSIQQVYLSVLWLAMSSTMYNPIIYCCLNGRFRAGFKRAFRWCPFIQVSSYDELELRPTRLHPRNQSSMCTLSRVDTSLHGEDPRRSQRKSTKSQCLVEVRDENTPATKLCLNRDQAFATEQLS

B1: NKF-analog (Succ-Asp-Ser-Phe-N(Me)Val-Gly-Leu-Met-NH2) (peptide)
peptide: XDSFXGLM
modifications: N-terminal succinyl (Succ) on Asp; N(Me)Val; C-terminal amide (-NH2)
B2: NKBb-analog (Succ-Asp-Phe-N(Me)Val-Gly-Leu-Met-NH2) (peptide)
peptide: Suc-DF[NMeV]GLM-NH2
B3: Zebrafish Tac3b peptide, neurokinin Bb (STGINREAHLPFRPNMNDIFVGLL-NH2) (peptide)
peptide: STGINREAHLPFRPNMNDIFVGLL-NH2
B4: NKBa-analog (Succ-Asp-Ile-Phe-N(Me)Val-Gly-Leu-Met-NH2) (peptide)
peptide: Suc-DIF[NMeV]GLM-NH2
SMILES: CC[C@H](C)[C@H](NC(=O)[C@H](CC(=O)O)NC(=O)CCC(=O)O)C(=O)N[C@@H](Cc1ccccc1)C(=O)N(C)[C@H](C(=O)NCC(=O)N[C@@H](CC(C)C)C(=O)N[C@@H](CCSC)C(N)=O)C(C)C
B5: Zebrafish Tac3a peptide, neurokinin Ba (EMHDIFVGLM-NH2) (peptide)
peptide: EMHDIFVGLM-NH2
B6: Senktide (Succ-Asp-Phe-N(Me)Phe-Gly-Leu-Met-NH2) (peptide)
peptide: Suc-DF[NMeF]GLM-NH2
B7: human NKB (neurokinin B) (peptide)
peptide: DMHDFFVGLM-NH2

Tests used:
[1] = test system: zfTac3rb; assay: Receptor transactivation assay, SRE-Luc reporter (PKC activation), COS-7 cells expressing zfTac3rb; format: cell-based, zebrafish; conditions: mean ± SEM
Description: (§1) In order to study the signaling pathways of the novel zebrafish NKBs, the entire coding regions of zftac3ra (denoted by SEQ ID NO:6) or zftac3rb (denoted by SEQ ID NO:7), or the cDNA clone for human NK3R (obtained from the Missouri S&T cDNA Resource Center, were inserted into pcDNA3.1 (Invitrogen). The luciferase assay was conducted according to Biran et al., 2008 [4] COS-7 cells were grown in DMEM supplemented with 10% FBS, 1% glutamine, 100 U/ml penicillin, and […] streptomycin (Biological Industries) under 5% CO2 until confluent. Cotransfection of either pc-zftac3ra, pc-zftac3rb or pc-Htac3r (at 3 μg/plate), a reporter plasmid (at 2 μg/plate), and pCMV-β-galactosidase (at 1 μg/plate) was carried out with FuGENE 6.0 reagent (Roche). The cells were serum starved for 36 h, stimulated with vehicle or various concentrations of either human (Sigma) or zebrafish NKBs for 6 h, and then harvested and analyzed. Lysates prepared from the harvested cells were assayed for both luciferase activity and β-galactosidase activity, which was used as an internal standard to normalize the luciferase activity directed by the test plasmid. Transfection experiments were performed in triplicate with three independently isolated sets. Protein structure prediction of zebrafish NKBa, NKBb or NKF were performed on I-Tasser servers.
(§2) The response, binding selectivity and signal transduction pathways of the novel tachykinin receptors to their agonists were evaluated by functional expression analysis, using COS-7 cells.
(§3) The NKB analogues (i.e. the NKBa-analog, NKBb-analog and NKF-analog, as denoted by SEQ ID NO. 44-46) were first analyzed in comparison to their native forms in a transactivation assay, using reporter genes for specific signal transduction pathways. To validate the specificity of the serum-responsive element (SRE)-Luc and cAMP-responsive element (CRE)-Luc reporter systems, specific activators for PLC/PKC and AC/PKA signaling pathways were used in control experiments.
(§4) Thus, the ability of the three novel piscine peptides (namely, NKBa, NKBb and NKF, denoted by SEQ ID NO.40, 41 and 42), as well as the ability of the three analogous agonistic peptides, namely, NKBa-analog, NKBb-analog and NKF-analog, to differentially activate the different tac3 receptors, using SRE as a reporter gene that follows PKC activation and CRE as a reporter gene for the PKA pathway, was tested. Human NK3R (human NKB receptor) and human NKB served as controls.

[2] = test system: zfTac3rb; assay: Receptor transactivation assay, CRE-Luc reporter (PKA activation), COS-7 cells expressing zfTac3rb; format: cell-based, zebrafish; conditions: mean ± SEM
Description: as §1, §2, §3, §4

[3] = test system: zfTac3ra; assay: Receptor transactivation assay, SRE-Luc reporter (PKC activation), COS-7 cells expressing zfTac3ra; format: cell-based, zebrafish; conditions: mean ± SEM
Description: as §1, §2, §3, §4

[4] = test system: zfTac3ra; assay: Receptor transactivation assay, CRE-Luc reporter (PKA activation), COS-7 cells expressing zfTac3ra; format: cell-based, zebrafish; conditions: mean ± SEM
Description: as §1, §2, §3, §4

[5] = biological target: T1, zebrafish Tac3ra (tac3 receptor a, NKB …); assay: cell-based or functional assay
[6] = biological target: T2, human NK3R (human NKB receptor); assay: cell-based or functional assay
[7] = biological target: T3, zebrafish Tac3rb (tac3 receptor b, NKB …); assay: cell-based or functional assay
[8] = biological target: T1, zebrafish Tac3ra (tac3 receptor a, NKB …); assay: cell-based or functional assay
[9] = biological target: T2, human NK3R (human NKB receptor); assay: cell-based or functional assay; remark: listed apart in the source
[10] = biological target: T3, zebrafish Tac3rb (tac3 receptor b, NKB …); assay: cell-based or functional assay
[11] = biological target: T1, zebrafish Tac3ra (tac3 receptor a, NKB …); assay: cell-based or functional assay
[12] = biological target: T2, human NK3R (human NKB receptor); assay: cell-based or functional assay; remark: listed apart in the source
[13] = biological target: T3, zebrafish Tac3rb (tac3 receptor b, NKB …); assay: cell-based or functional assay

Molecule | EC50 ([1]; Table 5, COS-7 cells, SRE-Luc follows PKC activation, read-out: EC50 SRE-Luc zfTac3rb) [nM] | EC50 ([1]; Table 7 (native peptides and analogues), PKC activation, read-out: EC50 using SRE, zfTac3rb) [nM] | EC50 ([2]; Table 5, COS-7 cells, CRE-Luc follows PKA activation, read-out: EC50 CRE-Luc zfTac3rb) [nM] | EC50 ([2]; Table 6 (native peptides and analogues), PKA activation, read-out: EC50 using CRE-Luc, zfTac3rb) [nM] | EC50 ([3]; Table 5, COS-7 cells, SRE-Luc follows PKC activation, read-out: EC50 SRE-Luc zfTac3ra) [nM] | EC50 ([3]; Table 7 (native peptides and analogues), PKC activation, read-out: EC50 using SRE, zfTac3ra) [nM] | EC50 ([4]; Table 5, COS-7 cells, CRE-Luc follows PKA activation, read-out: EC50 CRE-Luc zfTac3ra) [nM] | EC50 ([4]; Table 6 (native peptides and analogues), PKA activation, read-out: EC50 using CRE-Luc, zfTac3ra) [nM] | EC50, CRE-Luc to follow PKA activation, transfected COS-7 cells [5] [nM] | EC50, CRE-Luc to follow PKA activation, transfected COS-7 cells [6] [nM] | EC50, CRE-Luc to follow PKA activation, transfected COS-7 cells [7] [nM] | EC50, SRE reporter gene that follows PKC activation, transfected COS-7 cells [8] [nM] | EC50, SRE reporter gene that follows PKC activation, transfected COS-7 cells [9] [nM] | EC50, SRE reporter gene that follows PKC activation, transfected COS-7 cells [10] [nM] | EC50, CRE-Luc reporter (PKA activation), transfected COS-7 cells [11] [nM] | EC50, SRE-Luc reporter (PKC activation), transfected COS-7 cells [11] [nM] | EC50, CRE-Luc reporter (PKA activation), transfected COS-7 cells [12] [nM] | EC50, SRE-Luc reporter (PKC activation), transfected COS-7 cells [12] [nM] | EC50, CRE-Luc reporter (PKA activation), transfected COS-7 cells [13] [nM] | EC50, SRE-Luc reporter (PKC activation), transfected COS-7 cells [13] [nM]
CSCC[C@H](NC(=O)[C@H](CC(C)C)NC(=O)CNC(=O)[C@@H](NC(=O)[C@H](Cc1ccccc1)NC(=O)[C@H](Cc1ccccc1)NC(=O)[C@H](CC(=O)O)NC(=O)[C@H](Cc1c[nH]cn1)NC(=O)[C@H](CCSC)NC(=O)[C@@H](N)CC(=O)O)C(C)C)C(N)=O [huNKB, reference compound] | 0.82 ± 0.16 | 0.82 ± 0.16 | 8.12 ± 1.56 | 8.12 ± 1.56 | 2.2 ± 1.49 | 2.2 ± 1.49 | 12.9 ± 13.3 | 12.9 ± 13.3 | – | – | – | – | – | – | – | – | – | – | – | –
B1 | – | – | – | – | – | – | – | – | 9.14 | 7.33 | 7.75 | 0.31 | 0.71 | 0.54 | – | – | – | – | – | –
B2 | – | – | – | – | – | – | – | – | 1.68 | 2.19 | 2.18 | 0.06 | 0.94 | 0.23 | – | – | – | – | – | –
B3 | – | – | – | – | – | – | – | – | 99.6 | 336 | 191 | 6.06 | 204 | 15.3 | 237 | 8.96 | 605 | 204 | 519 | 33.8
B4 | – | – | – | – | – | – | – | – | 6.94 | 16.8 | 11.9 | 0.15 | 3.44 | 0.29 | – | – | – | – | – | –
B5 | – | – | – | – | – | – | – | – | 4.75 | 6.64 | 16.4 | 0.62 | 0.49 | 26.1 | 5.75 | 0.5 | 3.73 | 0.49 | 4.55 | 1.47
B6 | – | – | – | – | – | – | – | – | 49 | – | 20.1 | 2.68 | – | 2.72 | 49 | 2.67 | – | – | 20.1 | 2.72
B7 | – | – | – | – | – | – | – | – | 12.9 | – | 8.12 | 2.2 | – | 0.82 | 12.9 | 2.2 | – | – | 8.12 | 0.82
